Laboratory results published in patent publication US20070271623A1 (UNIVERSITY OF COPENHAGEN, published 2007).

Experiments:
[1] = target: T1, mutant MKS1-S30A C3-truncation (histidine-tagged)
T1 chain: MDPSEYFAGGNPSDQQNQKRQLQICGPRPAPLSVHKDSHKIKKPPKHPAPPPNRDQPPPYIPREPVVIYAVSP

[2] = target: T2, mutant full-length MKS1-S30A (histidine-tagged)
T2 chain: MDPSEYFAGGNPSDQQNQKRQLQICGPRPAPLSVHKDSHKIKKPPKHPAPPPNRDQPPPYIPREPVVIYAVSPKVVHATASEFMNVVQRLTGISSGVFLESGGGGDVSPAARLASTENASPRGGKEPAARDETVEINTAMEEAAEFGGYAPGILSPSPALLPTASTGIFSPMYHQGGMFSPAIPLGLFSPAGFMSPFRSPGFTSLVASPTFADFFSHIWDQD

B1: HA (influenza hemagglutin antigen)-tagged MPK4 (protein)
chain: YPYDVPDYAYPYDVPDYAYPYDVPDYAYPYDVPDYAYPYDVPDYAYPYDVPDYAMSAESCFGSSGDQSSSKGVATHGGSYVQYNVYGNLFEVSRKYVPPLRPIGRGAYGIVCAATNSETGEEVAIKKIGNAFDNIIDAKRTLREIKLLKHMDHENVIAVKDIIKPPQRENFNDVYIVYELMDTDLHQIIRSNQPLTDDHCRFFLYQLLRGLKYVHSANVLHRDLKPSNLLLNANCDLKLGDFGLARTKSETDFMTEYVVTRWYRAPELLLNCSEYTAAIDIWSVGCILGETMTREPLFPGKDYVHQLRLITELIGSPDDSSLGFLRSDNARRYVRQLPQYPRQNFAARFPNMSAGAVDLLEKMLVFDPSRRITVDEALCHPYLAPLHDINEEPVCVRPFNFDFEQPTLTEENIKELIYRETVKFNPQDSV
in vitro phosphorylation assay (32P-γ-ATP, SDS-PAGE, phosphorimager) [1]: the mutant C3 truncated MKS1 (C3-S30A) was not phosphorylated by HA-tagged MPK4 | in vitro phosphorylation assay (32P-γ-ATP, SDS-PAGE, phosphorimager) [2]: the mutant full-length MKS1 (S30A) was phosphorylated
